The test has as its target Lake Sinai virus 2 capsid protein, full-length (residues 1–520) (Lake Sinai virus 2). The experiment in a line: cryo-EM structure; purified LSV2 VLPs (30 mg/mL) assembled in vitro in 50 mM HEPES, 300 mM NaCl at pH 6.5, 7.5 or 8.5; T = 4 and T = 3 particles from single datasets, icosahedral and focused refinement.

“And” between values parts separate entries of the source, which are not always exact repeats. Equal entries are not always repeated.

The term stoichiometry N denotes a count of units in the complex or per binding partner. As for “Lake Sinai virus 2 capsid protein, full-length (residues 1–520) (natural protein)”, the stoichiometry N is 240 copies and 180 copies.

The values are drawn from PMC9892032.
